The target of the series is preformed binary t-SNARE complex of Syx 1a (amino acids 1-262) and SNAP25 (amino acids 1-206), O35526. Description: SDS-resistant SNARE complex formation (SDS-PAGE without boiling, Coomassie staining); t-SNAREs preformed 1 hr (syntaxin 1 3 uM, SNAP25 15 uM), peptide (50 uM) or none added for 30 min, then GST-SybII (3 uM); 25 C; 100 mM NaCl, 1 mM DTT, 1 mM EDTA, 0.5% Triton X-100, 20 mM Tris pH 7.4; time …. As to conditions: other: SDS-resistant SNARE complex formation (SDS-PAGE without boiling, Coomassie staining).
Sequence of preformed binary t-SNARE complex of Syx 1a (amino acids 1-262) and SNAP25 (amino acids 1-206), O35526 (O35526 whole entry, looked up, the tested form may be a part, one chain of several): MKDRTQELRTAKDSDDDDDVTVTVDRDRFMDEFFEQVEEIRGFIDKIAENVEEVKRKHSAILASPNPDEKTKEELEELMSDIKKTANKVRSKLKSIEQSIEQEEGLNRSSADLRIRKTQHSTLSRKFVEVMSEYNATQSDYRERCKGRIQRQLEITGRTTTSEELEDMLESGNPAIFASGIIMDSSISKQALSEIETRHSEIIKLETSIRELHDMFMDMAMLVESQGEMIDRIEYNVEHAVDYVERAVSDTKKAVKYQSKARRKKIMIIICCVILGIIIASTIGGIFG

B1: CpxII CTD peptide (amino acids 101-134), in solution (peptide)
chain: IPAGCGDEEEEEEESILDTVLKYLPGPLQDMFKK
B1: the “amount of assembled SNARE complexes (m10 with m11) after 240 min with 50 uM peptide, % of control” value was “CTD-peptide 92.3 ± 9.1” and the “rate of SNARE complex assembly (m10 with m11) with 50 uM peptide, % of control” value is 51.4 ± 3.8% of control.

B2: scrambled variant of the CpxII CTD peptide, in solution (peptide)
chain: KVPYELGGQLPELKTSDPIEGEDEDELFMKEIAC
Consider B2, for which the “amount of assembled SNARE complexes (m10 with m11) after 240 min with 50 uM peptide, % of control” value is given as “scr-peptide 88.8 ± 9.6” and the “rate of SNARE complex assembly (m10 with m11) with 50 uM peptide, % of control” value is recorded as 106.6 ± 16.7% of control.
